This is an account of results in patent US10590397B2 (priority 2017, dated 2020).

For data set [1] the following is noted: DON as substrate; Michlmayr, et al., 2015; cited from earlier work.
Data set [2] is classed as biochemical, Fusarium.
Data set [3] is classed as biochemical, Fusarium. The source holds these as a separate data set.

Residue numbers refer to the chain shown, from its start. In names and notes the source's numbering stands. Several values for one entry are separate records, joined by “and”; a condition that tells them apart may be missing. Equal values may be shown once. Read-outs that look alike come from different tables or passages of the source.

B1: Os79 (protein, listed as Oryza sativa)
chain: MGSMSTPAASANGGQVLLLPFPAAQGHTNPMLQFGRRLAYHGLRPTLVTTRYVLSTTPPPGDPFRVAAISDGFDDASGMAALPDPGEYLRTLEAHGARTLAELLLSEARAGRPARVLVYDPHLPWARRVARAAGVATAAFLSQPCAVDLIYGEVCARRLALPVTPTDARGLYARGVLGVELGPDDVPPFVAAPELTPAFCEQSIEQFAGLEDDDDVLVNSFSDLEPKEAAYMESTWRAKTIGPSLPSFYLDDGRLRSNTAYGFNLFRSTVPCMEWLDKQPPRSVVLVSYGTVSTFDVAKLEELGNGLCNSGKPFLWVVRSNEEHKLSVQLRKKCEKRGLIVPFCPQLEVLAHKATGCFLSHCGWNSTLEAIVNGVPLVAMPHWADQPTISKYVESLWGMGVRVQLDKSGILQREEVERCIREVMDGDRKEDYRRNATRLMKKAKESMQEGGSSDKNIAEFAAKYSN
In general, Km refers to the concentration of substrate that gives half-maximal velocity. By kcat is commonly meant the number of substrate molecules converted per active site and unit of time at saturation. As to B1, in data set [1], the Km is 230 µM and the kcat was 0.57 s⁻¹.

B2: Os79 A384S (protein, listed as Oryza sativa)
chain: B1 chain with A384S
Turning to B2, the “KM value compared to WT Os79” value in data set [2] is given as “similar”.

B3: Os79 Q202A (protein, listed as Oryza sativa)
chain: B1 chain with Q202A
Consider B3, for which the “KM value compared to WT Os79” value in data set [2] was “no significant difference”.

B4: Os79 H122A/L123G (protein, listed as Oryza sativa)
chain: B1 chain with H122A, L123G
In the case of B4, the Km is 512 µM in data set [3]; 2500 µM and 2510 µM in data set [2] (23° C.).

B5: Os79 H122A/L123A (protein, listed as Oryza sativa)
chain: B1 chain with H122A, L123A
B5: the Km in data set [3] was 926 µM. Further, the kcat in data set [3] (23° C.) was 1.6 s⁻¹.
